[ ]: non-standard residue; d: D form. d(hArg) = N=C(N)NCCCC[C@@H](N)C(=O)O; dPhg = N[C@@H](C(=O)O)c1ccccc1
Key:
[1] = target: T1, Abeta oligomers (Homo sapiens, UniProt P05067); test: Peptide microarray, binding of FITC Abeta oligomers to immobilized peptides; conditions: 1 hour at room temperature, control subtracted, averaged
Method: (§1) The procedure for identifying peptides that bind specifically to amyloid beta monomer or specifically to amyloid beta oligomers and for determining the binding specificity of peptides within the meaning of the present invention can thus be as follows. Peptide microarrays comprising various peptides immobilized on a surface, such as derivatives of D3, are each incubated with different species of Abeta (such as monomers, oligomers and fibrils) labeled with a fluorescent dye. A peptide microarray is incubated with only the fluorescent dye to serve as the control. So as to ensure the reproducibility of the results, the incubation of the peptide microarrays can be carried out at least three times for each species. The binding of the fluorescence-labeled Abeta to the immobilized peptides is detected by way of the fluorescent dye. The more Abeta binds to the peptide, the higher the fluorescence signal is. The measured fluorescence signals of the reproductions are standardized, and the […]. This avoids binding of the fluorescence-labeled Abeta via the dye. The binding signals of an Abeta species to a peptide are then averaged. So as to determine the binding specificity, the quotient of the species to which the peptide is to specifically bind and another species is found.
(§2) Pretreatment of the peptide microarray slides: • briefly dip 3× in ethanol (96%) and then wash with H2O (30 minutes) • briefly dry by way of centrifuging
(§3) Preparation of monomers and oligomers: • size exclusion chromatography according to Johansson et al. 2006 (Johansson, A.-S. et al. Physiochemical characterization of the Alzheimer's disease-related peptides Aβ1-42Arctic and Aβ1-42 wt. FEBS Journal 273, 2618-2630 (2006)). • oligomers were fractionated at 8-9 ml, monomers at 16-17 ml.
(§4) Carrying out the peptide microarray: • incubate with FITC Abeta monomers, oligomers, fibrils and FITC for 1 hour at room temperature • wash: TBS-T briefly 3× (only TBS-T buffer is replaced), 3×10 minutes in a flacon, 3×H2O, 3×10 minutes • dry by way of centrifugation • The binding of the fluorescence-labeled Abeta to the immobilized peptides is detected by way of the fluorescent dye using the microarray reader FLA800 from Fuji Film. The more Abeta binds to the peptide, the higher is the fluorescence signal. • carrier set mode: slides • resolution: 10 μm • scan mode: high sensitivity (slow): scan pixel at 200 mm/s • laser: 473 nm • filter: 530 DF 20 • photomultiplier tube (PMT) HV (%): 100 • images were stored as .tif files
(§5) The software, AIDA Metrix, from Raytest was used to evaluate the fluorescence signals:
(§6) To ensure the reproducibility of the results, the incubation of the peptide microarrays is carried out at least three times for each species.
(§7) The measured fluorescence signals of the reproductions are standardized using a median-based standardization, and the control was subtracted from the signal. This avoided the binding of the fluorescence-labeled Abeta via the dye.
(§8) The binding signals of an Abeta species to a peptide were averaged.

[2] = target: T2, Abeta monomers (Homo sapiens, UniProt P05067); test: Peptide microarray, binding of FITC Abeta monomers to immobilized peptides; conditions: for Binding signal to Abeta monomers: peptide microarray, FITC Abeta, 1 hour at room temperature, control subtracted, averaged; for Binding specificity monomer to fibrils: quotient binding signal to monomers / binding signal to fibrils; for Binding specificity monomer to oligomer: quotient binding signal to monomers / binding signal to oligomers
T2 construct: incubate with FITC Abeta monomers, oligomers, fibrils and FITC for 1 hour at room temperature
Method: as §1, §2, §3, §4, §5, §6, §7, §8
So as to determine the binding specificity, the quotient of the species to which the peptide is to specifically bind and another species is created.
Example: binding specificity of peptide X to Abeta monomers=binding signal of peptides X to monomers/binding signal of peptides X to oligomers.

[3] = target: T3, Abeta fibrils (Homo sapiens, UniProt P05067); test: Peptide microarray, binding of FITC Abeta fibrils to immobilized peptides; conditions: 1 hour at room temperature, control subtracted, averaged
T3 construct: Pre-incubated Abeta was co-incubated with the peptides
Method: as §1, §2
Preparation of fibrils: • incubate Abeta over 3 days, centrifuge, discard supernatant and resuspend in buffer (repeat 3 times)
as §4, §5, §6, §7, §8

[4] = target: T3, Abeta fibrils; test: ThT assay, formation of ThT positive Abeta fibrils; assay type: biochemical; conditions: 48 hours, co-incubation with Abeta, FIG. 3
[5] = target: T1, Abeta oligomers; test: QIAD method, elimination of Abeta oligomers (density gradient centrifugation, RP-HPLC); assay type: biochemical; conditions: ratio of Abeta to peptide of 8:1, fractions 4-6, FIG. 2
Method: Using the QIAD method for the quantitative characterization of amyloid peptides and/or proteins in a sample, it was possible to quantify the properties of the substances. Pre-incubated Abeta was co-incubated with the peptides. The different Abeta species were separated by way of density gradient centrifugation and quantified in the individual fractions by way of RP-HPLC Abeta. The elimination of the Abeta oligomers in fractions 4-6 was analyzed.

T1 sequence (P05067 672-713 limits assumed): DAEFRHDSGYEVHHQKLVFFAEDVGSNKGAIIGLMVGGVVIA
T3 sequence (P05067 672-713 limits assumed): as above
T2 sequence (P05067 672-713 limits assumed): as above

Substance | Binding signal to Abeta oligomers [1] [rfu] | Binding signal to Abeta monomers [2] [rfu] | Binding specificity monomer to fibrils [2] | Binding specificity monomer to oligomer [2] | Binding signal to Abeta fibrils [3] [rfu] | ThT fluorescence during the entire measuring time period [4] | Elimination of Abeta oligomers [5] [%]
rprvrl06yhwnr (H-[dR][dP][dR][dV][dR][dL][dPhg][dY][dH][dW][dN][dR]-NH2; SMILES CC(C)C[C@@H](NC(=O)[C@@H](CCCNC(=N)N)NC(=O)[C@H](NC(=O)[C@@H](CCCNC(=N)N)NC(=O)[C@H]1CCCN1C(=O)[C@H](N)CCCNC(=N)N)C(C)C)C(=O)N[C@@H](C(=O)N[C@H](Cc1ccc(O)cc1)C(=O)N[C@H](Cc1c[nH]cn1)C(=O)N[C@H](Cc1c[nH]c2ccccc12)C(=O)N[C@H](CC(N)=O)C(=O)N[C@H](CCCNC(=N)N)C(N)=O)c1ccccc1) [ANK15, D3 derivative; 06: Phenylglycine (D)] | 0.6 | 1.3 | 12.2 | 2.2 | 0.1 |  | 
rkrirl06yhwnr (H-[dR][dK][dR][dI][dR][dL][dPhg][dY][dH][dW][dN][dR]-NH2; SMILES CC[C@@H](C)[C@@H](NC(=O)[C@@H](CCCNC(=N)N)NC(=O)[C@@H](CCCCN)NC(=O)[C@H](N)CCCNC(=N)N)C(=O)N[C@H](CCCNC(=N)N)C(=O)N[C@H](CC(C)C)C(=O)N[C@@H](C(=O)N[C@H](Cc1ccc(O)cc1)C(=O)N[C@H](Cc1c[nH]cn1)C(=O)N[C@H](Cc1c[nH]c2ccccc12)C(=O)N[C@H](CC(N)=O)C(=O)N[C@H](CCCNC(=N)N)C(N)=O)c1ccccc1) [ANK3, D3 derivative; 06: Phenylglycine (D)] | 0.6 | 3.6 | 21.9 | 6.5 | 0.2 | remains at the level of the first measured value | 62±10
rpr07rlhtkkkr (H-[dR][dP][dR][d(hArg)][dR][dL][dH][dT][dK][dK][dK][dR]-NH2; SMILES CC(C)C[C@@H](NC(=O)[C@@H](CCCNC(=N)N)NC(=O)[C@@H](CCCCNC(=N)N)NC(=O)[C@@H](CCCNC(=N)N)NC(=O)[C@H]1CCCN1C(=O)[C@H](N)CCCNC(=N)N)C(=O)N[C@H](Cc1c[nH]cn1)C(=O)N[C@@H](C(=O)N[C@H](CCCCN)C(=O)N[C@H](CCCCN)C(=O)N[C@H](CCCCN)C(=O)N[C@H](CCCNC(=N)N)C(N)=O)[C@H](C)O) [ANK18, D3 derivative; 07: D-Homoarginine] | 0.2 | 1.2 | 9.4 | 7.0 | 0.1 |  | 
rkr07rlvtkrnr (H-[dR][dK][dR][d(hArg)][dR][dL][dV][dT][dK][dR][dN][dR]-NH2; SMILES CC(C)C[C@@H](NC(=O)[C@@H](CCCNC(=N)N)NC(=O)[C@@H](CCCCNC(=N)N)NC(=O)[C@@H](CCCNC(=N)N)NC(=O)[C@@H](CCCCN)NC(=O)[C@H](N)CCCNC(=N)N)C(=O)N[C@@H](C(=O)N[C@@H](C(=O)N[C@H](CCCCN)C(=O)N[C@H](CCCNC(=N)N)C(=O)N[C@H](CC(N)=O)C(=O)N[C@H](CCCNC(=N)N)C(N)=O)[C@H](C)O)C(C)C) [ANK16, D3 derivative; 07: D-Homoarginine] | 1.4 | 11.9 | 8.1 | 8.6 | 1.5 |  | 
rkrirl06yhinr (H-[dR][dK][dR][dI][dR][dL][dPhg][dY][dH][dI][dN][dR]-NH2; SMILES CC[C@@H](C)[C@@H](NC(=O)[C@@H](Cc1c[nH]cn1)NC(=O)[C@@H](Cc1ccc(O)cc1)NC(=O)[C@H](NC(=O)[C@@H](CC(C)C)NC(=O)[C@@H](CCCNC(=N)N)NC(=O)[C@H](NC(=O)[C@@H](CCCNC(=N)N)NC(=O)[C@@H](CCCCN)NC(=O)[C@H](N)CCCNC(=N)N)[C@H](C)CC)c1ccccc1)C(=O)N[C@H](CC(N)=O)C(=O)N[C@H](CCCNC(=N)N)C(N)=O) [ANK2, D3 derivative; 06: Phenylglycine (D)] | 1.6 | 5.6 | 7.1 | 3.4 | 0.8 | remains at the level of the first measured value | 54±7
rkrirl06yhikr (H-[dR][dK][dR][dI][dR][dL][dPhg][dY][dH][dI][dK][dR]-NH2; SMILES CC[C@@H](C)[C@@H](NC(=O)[C@@H](Cc1c[nH]cn1)NC(=O)[C@@H](Cc1ccc(O)cc1)NC(=O)[C@H](NC(=O)[C@@H](CC(C)C)NC(=O)[C@@H](CCCNC(=N)N)NC(=O)[C@H](NC(=O)[C@@H](CCCNC(=N)N)NC(=O)[C@@H](CCCCN)NC(=O)[C@H](N)CCCNC(=N)N)[C@H](C)CC)c1ccccc1)C(=O)N[C@H](CCCCN)C(=O)N[C@H](CCCNC(=N)N)C(N)=O) [ANK17, D3 derivative; 06: Phenylglycine (D)] | 1.0 | 4.7 | 2.5 | 4.8 | 1.9 |  | 
rkrirlvyhinr (H-[dR][dK][dR][dI][dR][dL][dV][dY][dH][dI][dN][dR]-NH2; SMILES CC[C@@H](C)[C@@H](NC(=O)[C@@H](Cc1c[nH]cn1)NC(=O)[C@@H](Cc1ccc(O)cc1)NC(=O)[C@H](NC(=O)[C@@H](CC(C)C)NC(=O)[C@@H](CCCNC(=N)N)NC(=O)[C@H](NC(=O)[C@@H](CCCNC(=N)N)NC(=O)[C@@H](CCCCN)NC(=O)[C@H](N)CCCNC(=N)N)[C@H](C)CC)C(C)C)C(=O)N[C@H](CC(N)=O)C(=O)N[C@H](CCCNC(=N)N)C(N)=O) [ANK1, D-enantiomeric 12-mer peptide derived from D3] | 1.9 | 6.6 | 5.1 | 3.5 | 1.3 | remains at the level of the first measured value | 51±6

From US10174097B2, “Specific A-beta species-binding peptides for the therapy and/or diagnosis of Alzheimer's dementia” (Forschungszentrum Juelich GmbH, priority 2015, dated 2019)
